Assay results published in the supplement of paper PMC12764529.
± gives the half width of the 95% confidence interval.

Assays:
[1] = folding stability dG unfold from trypsin proteolysis; higher = more stable
Outline: (§1)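 Digests were run with trypsin and chymotrypsin at 11 concentrations in threefold dilutions, plus a no-protease condition, on designed mini-proteins in a PA-tagged cDNA display construct. The mini-proteins were under 80 residues, had no cysteine, and were kept only when AlphaFold2 dimer inter-PAE was above 15. After sequencing, Bayesian fitting of the counts gave K50, from which unfolding free energy was derived against a sequence-predicted unfolded-state K50 and a shared folded-state K50, per protease or combined.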

[2] = folding stability dG unfold from chymotrypsin proteolysis; higher = more stable
Outline: as §1

[3] = folding stability dG unfold (combined trypsin and chymotrypsin); higher = more stable
Outline: as §1

SAGGMKIKIKIKPGQVILIKIRNKETGEEKTILVEVKEDQEITIELPEGYEIVDIKIVPLEDLPEEELSAGG [r13_119_TrROS_Hall]
folding stability dG unfold [1]: 3.94 ± 0.3 kcal/mol
folding stability dG unfold [2]: 3.96 ± 0.17 kcal/mol
folding stability dG unfold [3]: 4.05 ± 0.23 kcal/mol

SAGGMKIKITEVTVTRYYYDPKTGKLKKVEKVKVLVIEVELEPGQTAEEIAAALKKLFPDLKIVVVDSAGGS [r8_30_TrROS_Hall]
folding stability dG unfold [1]: 4.14 ± 0.092 kcal/mol
folding stability dG unfold [2]: 5.33 ± 0.11 kcal/mol
folding stability dG unfold [3]: 5.17 ± 0.18 kcal/mol

SAGGMKIKKITVEKNPETGELVVTVEVEINGKKYKFTFYKDGTVKVEVEVNGKKVTITLPVEELKKLSAGGS [r8_238_TrROS_Hall]
folding stability dG unfold [1]: 2.13 ± 0.058 kcal/mol
folding stability dG unfold [2]: 3.8 ± 0.063 kcal/mol
folding stability dG unfold [3]: 3.35 ± 0.13 kcal/mol

SAGGMKITEEAIKNFPPGRWIQFRIPDDGYMVTIRVHDPGEIKINYRKFPPGNGEPREEQEHKIPLDSAGGS [r16_163_TrROS]
folding stability dG unfold [1]: 0.845 ± 0.24 kcal/mol
folding stability dG unfold [2]: 0.825 ± 0.28 kcal/mol
folding stability dG unfold [3]: 0.917 ± 0.27 kcal/mol

SAGGMKITIKEDEETGEKVIEIEDEETGERVRVVFNPDGEEIEIEVPSPEVLEALKELGIEKVEVEEVSAGG [r13_511_TrROS_Hall]
folding stability dG unfold [1]: 0.732 ± 0.13 kcal/mol
folding stability dG unfold [2]: 1.07 ± 0.063 kcal/mol
folding stability dG unfold [3]: 0.976 ± 0.19 kcal/mol

SAGGMKIVSESTDPSVPTSYVTIEITDPKTGKKTTIKLPQDPAAGTGSPEALAKEVREKLKLPEGVELSAGG [r13_362_JUSTAS]
folding stability dG unfold [1]: 0.221 ± 0.083 kcal/mol
folding stability dG unfold [2]: 1.01 ± 0.053 kcal/mol
folding stability dG unfold [3]: 0.814 ± 0.073 kcal/mol

SAGGMKIVSVEVVKDEETGVYVIKLTVEDPETNETYTLEVVIKNEDGELKTITVKAKSKEDALKELLKSAGG [r13_26_TrROS_Hall]
folding stability dG unfold [1]: 1.85 ± 0.067 kcal/mol
folding stability dG unfold [2]: 3.6 ± 0.14 kcal/mol
folding stability dG unfold [3]: 3.1 ± 0.23 kcal/mol

SAGGMKKIKIVVKVPPNVTAEELAKALEDELKKKGYEVKVTVKVVKKPDGSLYVVIEVEIRPKNEKPSAGGS [r16_128_TrROS_Hall]
folding stability dG unfold [1]: 3.04 ± 0.13 kcal/mol
folding stability dG unfold [2]: 3.67 ± 0.075 kcal/mol
folding stability dG unfold [3]: 3.52 ± 0.099 kcal/mol

SAGGMKKKIVEIEIVEVKYDEETNEVTIKIKIKNENGEEIEIEVTMSKEELEKMTPEELKKLVKELLKSAGG [r13_512_TrROS_Hall]
folding stability dG unfold [1]: 2.16 ± 0.2 kcal/mol
folding stability dG unfold [2]: 2.18 ± 0.24 kcal/mol
folding stability dG unfold [3]: 2.12 ± 0.3 kcal/mol

SAGGMKKKLLILVDSNNPNIPLEKIKEFFKKKGFDEVETLSLENIPPEKAIELAKKEKKPLLIIPTSSAGGS [r16_94_TrMRF]
folding stability dG unfold [1]: 1.376 ± 0.012 kcal/mol
folding stability dG unfold [2]: 2.21 ± 0.04 kcal/mol
folding stability dG unfold [3]: 1.97 ± 0.063 kcal/mol

SAGGMKKPIKAKIKIVKFEDGYLILIELPDGKIIAFKSPEELKAALEKFPEIEITEIEIIPPEEFLKKSAGG [r13_730_TrMRF]
folding stability dG unfold [1]: 1.63 ± 0.067 kcal/mol
folding stability dG unfold [2]: 3.47 ± 0.19 kcal/mol
folding stability dG unfold [3]: 3.07 ± 0.22 kcal/mol

SAGGMKKYLLTLNVTLERPDSEESITLTKEVDSLEEAEKLKEEIEKKLKEEYPGRISFDVTIEEIEESAGGS [r16_475_JUSTAS]
folding stability dG unfold [1]: 3.72 ± 0.1 kcal/mol
folding stability dG unfold [2]: 4.15 ± 0.076 kcal/mol
folding stability dG unfold [3]: 4.13 ± 0.12 kcal/mol

SAGGMKLTPEAKKLAEELKKEGKKVKIEKKDGYYVLTVDGKVYKSKEDMEKAAKDPNVKKVIVIKLPSAGGS [r16_275_TrROS_Hall]
folding stability dG unfold [1]: 0.519 ± 0.13 kcal/mol
folding stability dG unfold [2]: 1.95 ± 0.18 kcal/mol
folding stability dG unfold [3]: 1.46 ± 0.18 kcal/mol

SAGGMKPKEVIEIEITLPDGRKIRIRLVKKDGKLYLFIEVPEENEEARELAEELAKKLPGVEVEVFEPSAGG [r13_34_TrROS_Hall]
folding stability dG unfold [1]: 2.41 ± 0.1 kcal/mol
folding stability dG unfold [2]: 3.26 ± 0.12 kcal/mol
folding stability dG unfold [3]: 3.03 ± 0.14 kcal/mol

SAGGMKTITLEEAKALAEKAAEKGETVEIEVTLPDGTVVKFKVDAKTKKVELVEVKKLPAPPEDPEKKSAGG [r13_839_TrROS_Hall]
folding stability dG unfold [1]: 1.12 ± 0.046 kcal/mol
folding stability dG unfold [2]: 3.07 ± 0.088 kcal/mol
folding stability dG unfold [3]: 2.68 ± 0.13 kcal/mol

SAGGMKTTLLKEEELPGGVKRKIYLTENSSGGYYYVVTVTTELEPPAESKVSVSSKKISPEELKKLLSAGGS [r16_45_JUSTAS]
folding stability dG unfold [1]: 2.93 ± 0.14 kcal/mol
folding stability dG unfold [2]: 3.55 ± 0.069 kcal/mol
folding stability dG unfold [3]: 3.32 ± 0.17 kcal/mol

SAGGMKTVIVRVRRDSPEVRKALEALRKAKPGEEVELTVKGKKIRIVKIEEVDGEYYVTVEIEEEEESAGGS [r16_404_TrROS_Hall]
folding stability dG unfold [1]: 3.39 ± 0.074 kcal/mol
folding stability dG unfold [2]: 3.96 ± 0.062 kcal/mol
folding stability dG unfold [3]: 3.75 ± 0.093 kcal/mol

SAGGMKTVTIEYWGSLPDAVVLAKKAVEEAAKNKGKTVVTLYVWEGEPDENGVPRWKPLGKYVFVVDASAGG [r13_974_TrMRF]
folding stability dG unfold [1]: 2.44 ± 0.092 kcal/mol
folding stability dG unfold [2]: 3.477 ± 0.034 kcal/mol
folding stability dG unfold [3]: 3.19 ± 0.1 kcal/mol

SAGGMKVATVTLLTRDPSSDRTFEVTVEVPDDIVEKGDIEEAIARAKQLAEERGYPILEVEVEVKEPPSAGG [r13_954_JUSTAS]
folding stability dG unfold [1]: 1.13 ± 0.046 kcal/mol
folding stability dG unfold [2]: 0.625 ± 0.12 kcal/mol
folding stability dG unfold [3]: 0.922 ± 0.12 kcal/mol

SAGGMKVEIEIEEEPETGKVKITIKIDDVEIEIEATEEEIEKLIEEIEKIKAEPKLTEDGKLVPVIGSAGGS [r8_332_TrMRF]
folding stability dG unfold [1]: 1.94 ± 0.24 kcal/mol
folding stability dG unfold [2]: 1.8 ± 0.29 kcal/mol
folding stability dG unfold [3]: 1.92 ± 0.3 kcal/mol

SAGGMKVEIIRKDGKKVTLEGMTLEELLALLPEGEEYVIKVEVTVVDEKTKKKETVELTFTVPVEDLSAGGS [r16_806_TrROS_Hall]
folding stability dG unfold [1]: 1.18 ± 0.047 kcal/mol
folding stability dG unfold [2]: 2.47 ± 0.053 kcal/mol
folding stability dG unfold [3]: 2.04 ± 0.075 kcal/mol

SAGGMKVEVEVDPETGELYLKIYFPETGEVALVKIDPKTKTAEVVGSTDFVKEALPELGINNPTLVPGSAGG [r13_511_TrMRF]
folding stability dG unfold [1]: 1.06 ± 0.051 kcal/mol
folding stability dG unfold [2]: 1.59 ± 0.088 kcal/mol
folding stability dG unfold [3]: 1.43 ± 0.061 kcal/mol

SAGGMKVEVVPGGGAVVVEIPFPPTPATARLVISFHPDGTVTADLEPHPELPAELRAKLVELARELLGSAGG [r13_139_TrMRF]
folding stability dG unfold [1]: 1.6 ± 0.02 kcal/mol
folding stability dG unfold [2]: 2.31 ± 0.032 kcal/mol
folding stability dG unfold [3]: 2.07 ± 0.048 kcal/mol

SAGGMKVYKISFPNATVTYEEETGKVTINPPDGSTKVIEISPDISIEEVAKKLAEELGFTEATITPEPSAGG [r13_852_JUSTAS]
folding stability dG unfold [1]: 1.59 ± 0.095 kcal/mol
folding stability dG unfold [2]: 1.36 ± 0.057 kcal/mol
folding stability dG unfold [3]: 1.48 ± 0.068 kcal/mol

SAGGMKVYKTPDKITIELTHPETGEKAKGTYTPSTGKMTITYPNKLTVTISVDSNGNLTPVEKKPLLSAGGS [r16_127_JUSTAS]
folding stability dG unfold [1]: 0.592 ± 0.046 kcal/mol
folding stability dG unfold [2]: 0.577 ± 0.1 kcal/mol
folding stability dG unfold [3]: 0.626 ± 0.069 kcal/mol

SAGGMKYLIKIEVDGKEIEIEAESLEEAEELAKKLEEEGIEIEVKKIEIYELPEEEEEEEEEKKKKESAGGS [r8_336_TrROS_Hall]
folding stability dG unfold [1]: 0.249 ± 0.11 kcal/mol
folding stability dG unfold [2]: 2.24 ± 0.08 kcal/mol
folding stability dG unfold [3]: 1.85 ± 0.21 kcal/mol

SAGGMKYVLKIEITFKKPSGPPEKKIILVEFDPDFPDIPLEEAAERVLNEIAPKYGDEAKVSEISPVSAGGS [r8_101_TrMRF]
folding stability dG unfold [1]: 1.3 ± 0.054 kcal/mol
folding stability dG unfold [2]: 2.35 ± 0.066 kcal/mol
folding stability dG unfold [3]: 2 ± 0.13 kcal/mol

SAGGMLIVRITVDLTFPVIHPDNRPSLVSVPLPITLPFSTPEEARAFAEALSKLFDAPVSLEVLPPDGSAGG [r13_320_TrMRF]
folding stability dG unfold [1]: 3.62 ± 0.13 kcal/mol
folding stability dG unfold [2]: 4.4 ± 0.094 kcal/mol
folding stability dG unfold [3]: 4.16 ± 0.12 kcal/mol

SAGGMLKFTDPKTGNEYTVTEYDPNTGVYLVTTTYPDGTTTTREFPGSLEDIVKHLEEEGYPTTVVGSAGGS [r16_748_JUSTAS]
folding stability dG unfold [1]: 2.83 ± 0.12 kcal/mol
folding stability dG unfold [2]: 3.38 ± 0.1 kcal/mol
folding stability dG unfold [3]: 3.24 ± 0.069 kcal/mol

SAGGMLKIKVELFYPDGSTRTLPVPEEIQKEIVEALKKGEKIPEKPKKELEDIAKKEGYTIKIIELLSAGGS [r8_159_JUSTAS]
folding stability dG unfold [1]: 0.751 ± 0.051 kcal/mol
folding stability dG unfold [2]: 1.41 ± 0.11 kcal/mol
folding stability dG unfold [3]: 1.3 ± 0.18 kcal/mol

SAGGMLLVEAPDGTTVEVTPEQAADLTPGAVVRHPSGDVWTYNPANDETVRIPWVSPAEVERAVAELSSAGG [r13_962_JUSTAS]
folding stability dG unfold [1]: -0.0974 ± 0.038 kcal/mol
folding stability dG unfold [2]: -0.361 ± 0.12 kcal/mol
folding stability dG unfold [3]: -0.132 ± 0.043 kcal/mol

SAGGMLPDTLKLAREIAKELGINRIEPLESGEVVLYLPEDKVIVIDTINGIPRVRIYNKDEWIEIPISAGGS [r16_296_TrMRF]
folding stability dG unfold [1]: 3.65 ± 0.096 kcal/mol
folding stability dG unfold [2]: 4.56 ± 0.08 kcal/mol
folding stability dG unfold [3]: 4.26 ± 0.15 kcal/mol

SAGGMLVRVRFRIVEPGTGEPFEFEALLFFGEDGSFELVFPDGTRLLFPPEARIEVLDAELLDPDEASAGGS [r16_223_TrMRF]
folding stability dG unfold [1]: 3.96 ± 0.19 kcal/mol
folding stability dG unfold [2]: 4.9 ± 0.11 kcal/mol
folding stability dG unfold [3]: 4.61 ± 0.2 kcal/mol

SAGGMLVTFTTPDGKTVTVEVDSLEEAKKVIAEKLGLPPDTVLDVTVTDPVTGEVTSETVTIPVPVPESAGG [r13_145_JUSTAS]
folding stability dG unfold [1]: 3.3 ± 0.09 kcal/mol
folding stability dG unfold [2]: 3.99 ± 0.07 kcal/mol
folding stability dG unfold [3]: 3.96 ± 0.049 kcal/mol

SAGGMMKIRIEVENPKGEKKEIELSEEELERIKEALKEGKVLTEEELKKLIELAKEKGYKVKIVEIESAGGS [r8_159_TrROS_Hall]
folding stability dG unfold [1]: 0.447 ± 0.077 kcal/mol
folding stability dG unfold [2]: 2.37 ± 0.074 kcal/mol
folding stability dG unfold [3]: 2.09 ± 0.24 kcal/mol
